For one substance, remaining activity after mixed with streptavidin and activity maintained upon binding to streptavidin results are on record in patent US5843746.

The target in test [1] is biotinated firefly luciferase bL203 (Luciola lateralis (HEIKE firefly) luciferase fused to an artificial peptide).
The target of test [2] is chemically modified biotinated firefly luciferase (Photinus pyralis) [luciferase: P08659].
In test [3] the target is biotinated firefly luciferase bL248 (Luciola lateralis (HEIKE firefly) luciferase fused to a part of E. coli BCCP).

For the substance streptavidin (from UniProt P22629), the results for the remaining activity after mixed with streptavidin in test [1] and in test [2] were 93% and 62%, respectively. Besides, in test [3], the activity maintained upon binding to streptavidin amounted to 102%.
